From the supplement of paper PMC9112550, “Optimization of the antimicrobial peptide Bac7 by deep mutational scanning” (BMC Biology, 2022)

System: Escherichia coli TOP10
Assay: shrunken log2 fold change of peptide-encoding DNA abundance (4.5 h post-induction vs induction); higher = less antimicrobial activity (less host growth inhibition)
Conditions: time post-induction: 4.5 h; library: site-saturation at positions 5, 18, 19, 20
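Note: peptides expressed intracellularly from a pBAD plasmid library in pooled LB shake-flask culture, induced with 0.3% L-arabinose, DNA abundance read by NGS, three biological replicates, DESeq2 with apeglm shrinkage.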

How did the “shrunken log2 fold change” value turn out when RRIRPRPPRLPRPRPRPNPFPRP was run?
The value was -0.382.

For RRIRPRPPRLPRPRPRPNPKPRP, which “shrunken log2 fold change” value is on record?
Its value is 0.0202.

RRIRPRPPRLPRPRPRPNQKPRP was tested. Which “shrunken log2 fold change” value did it give?
The value was -0.0811.

RRIRPRPPRLPRPRPRPNQNPRP was tested. Which “shrunken log2 fold change” value did it give?
Its value is -0.178.

With RRIRPRPPRLPRPRPRPNQWPRP as the sequence, how does the “shrunken log2 fold change” value read?
The value was 0.139.

With RRIRPRPPRLPRPRPRPNSMPRP as the sequence, how does the “shrunken log2 fold change” value read?
The value was -0.251.

With RRIRPRPPRLPRPRPRPNTEPRP as the sequence, how does the “shrunken log2 fold change” value read?
Its value is -0.124.

RRIRPRPPRLPRPRPRPNVSPRP was tested. Which “shrunken log2 fold change” value did it give?
Its value is -0.0557.

For RRIRPRPPRLPRPRPRPNYGPRP, which “shrunken log2 fold change” value is on record?
Its value is 0.111.

RRIRPRPPRLPRPRPRPPALPRP was tested. Which “shrunken log2 fold change” value did it give?
Its value is 0.388.

With RRIRPRPPRLPRPRPRPPANPRP as the sequence, how does the “shrunken log2 fold change” value read?
Its value is 0.418.

Which “shrunken log2 fold change” value does the source give for RRIRPRPPRLPRPRPRPPATPRP here?
The value was 0.939.

RRIRPRPPRLPRPRPRPPCSPRP was tested. Which “shrunken log2 fold change” value did it give?
The value was -0.232.

For RRIRPRPPRLPRPRPRPPEAPRP, which “shrunken log2 fold change” value is on record?
The value was 0.0126.

With RRIRPRPPRLPRPRPRPPEFPRP as the sequence, how does the “shrunken log2 fold change” value read?
The value was -0.122.

How did the “shrunken log2 fold change” value turn out when RRIRPRPPRLPRPRPRPPELPRP was run?
Its value is 0.206.

For RRIRPRPPRLPRPRPRPPGGPRP, which “shrunken log2 fold change” value is on record?
Its value is 0.968.

RRIRPRPPRLPRPRPRPPGPPRP was tested. Which “shrunken log2 fold change” value did it give?
The value was 0.576.

Which “shrunken log2 fold change” value does the source give for RRIRPRPPRLPRPRPRPPHKPRP here?
The value was 0.452.

RRIRPRPPRLPRPRPRPPHPPRP was tested. Which “shrunken log2 fold change” value did it give?
The value was 0.292.

Which “shrunken log2 fold change” value does the source give for RRIRPRPPRLPRPRPRPPHWPRP here?
Its value is 0.865.

Which “shrunken log2 fold change” value does the source give for RRIRPRPPRLPRPRPRPPLSPRP here?
The value was 0.161.

Which “shrunken log2 fold change” value does the source give for RRIRPRPPRLPRPRPRPPNLPRP here?
The value was 0.0664.

RRIRPRPPRLPRPRPRPPPAPRP was tested. Which “shrunken log2 fold change” value did it give?
Its value is 2.01.

Which “shrunken log2 fold change” value does the source give for RRIRPRPPRLPRPRPRPPPGPRP here?
The value was 0.816.

For RRIRPRPPRLPRPRPRPPPYPRP, which “shrunken log2 fold change” value is on record?
The value was 0.0995.

For RRIRPRPPRLPRPRPRPPRQPRP, which “shrunken log2 fold change” value is on record?
The value was 0.334.

For RRIRPRPPRLPRPRPRPPRVPRP, which “shrunken log2 fold change” value is on record?
Its value is 0.447.

For RRIRPRPPRLPRPRPRPPTYPRP, which “shrunken log2 fold change” value is on record?
The value was -0.204.

With RRIRPRPPRLPRPRPRPPVMPRP as the sequence, how does the “shrunken log2 fold change” value read?
Its value is 0.303.

RRIRPRPPRLPRPRPRPPVVPRP was tested. Which “shrunken log2 fold change” value did it give?
The value was 0.649.

RRIRPRPPRLPRPRPRPQARPRP was tested. Which “shrunken log2 fold change” value did it give?
Its value is 0.208.

With RRIRPRPPRLPRPRPRPQAWPRP as the sequence, how does the “shrunken log2 fold change” value read?
Its value is 0.179.

Which “shrunken log2 fold change” value does the source give for RRIRPRPPRLPRPRPRPQDPPRP here?
Its value is -0.135.

How did the “shrunken log2 fold change” value turn out when RRIRPRPPRLPRPRPRPQDSPRP was run?
The value was -0.196.

RRIRPRPPRLPRPRPRPQEEPRP was tested. Which “shrunken log2 fold change” value did it give?
Its value is 0.0679.

Which “shrunken log2 fold change” value does the source give for RRIRPRPPRLPRPRPRPQELPRP here?
Its value is 0.126.

How did the “shrunken log2 fold change” value turn out when RRIRPRPPRLPRPRPRPQERPRP was run?
The value was 0.0985.

With RRIRPRPPRLPRPRPRPQGLPRP as the sequence, how does the “shrunken log2 fold change” value read?
Its value is -0.122.

Which “shrunken log2 fold change” value does the source give for RRIRPRPPRLPRPRPRPQIQPRP here?
Its value is -0.286.

With RRIRPRPPRLPRPRPRPQKDPRP as the sequence, how does the “shrunken log2 fold change” value read?
The value was -0.132.

How did the “shrunken log2 fold change” value turn out when RRIRPRPPRLPRPRPRPQKLPRP was run?
Its value is -0.0225.

With RRIRPRPPRLPRPRPRPQKSPRP as the sequence, how does the “shrunken log2 fold change” value read?
Its value is 0.0462.

With RRIRPRPPRLPRPRPRPQNAPRP as the sequence, how does the “shrunken log2 fold change” value read?
The value was -0.0677.

Which “shrunken log2 fold change” value does the source give for RRIRPRPPRLPRPRPRPQNNPRP here?
Its value is -0.812.

With RRIRPRPPRLPRPRPRPQPEPRP as the sequence, how does the “shrunken log2 fold change” value read?
Its value is 0.47.

For RRIRPRPPRLPRPRPRPQPKPRP, which “shrunken log2 fold change” value is on record?
The value was 0.147.

Which “shrunken log2 fold change” value does the source give for RRIRPRPPRLPRPRPRPQPTPRP here?
The value was -0.0242.

Which “shrunken log2 fold change” value does the source give for RRIRPRPPRLPRPRPRPQQVPRP here?
The value was 0.14.

How did the “shrunken log2 fold change” value turn out when RRIRPRPPRLPRPRPRPQRMPRP was run?
The value was 0.209.

RRIRPRPPRLPRPRPRPQRVPRP was tested. Which “shrunken log2 fold change” value did it give?
Its value is 0.202.

Which “shrunken log2 fold change” value does the source give for RRIRPRPPRLPRPRPRPQSWPRP here?
Its value is -0.134.

For RRIRPRPPRLPRPRPRPQVDPRP, which “shrunken log2 fold change” value is on record?
Its value is -0.0328.

How did the “shrunken log2 fold change” value turn out when RRIRPRPPRLPRPRPRPQVEPRP was run?
The value was 0.102.

For RRIRPRPPRLPRPRPRPQVFPRP, which “shrunken log2 fold change” value is on record?
The value was 0.0117.

How did the “shrunken log2 fold change” value turn out when RRIRPRPPRLPRPRPRPQYRPRP was run?
The value was -0.105.

RRIRPRPPRLPRPRPRPRCHPRP was tested. Which “shrunken log2 fold change” value did it give?
Its value is 0.144.

RRIRPRPPRLPRPRPRPRDCPRP was tested. Which “shrunken log2 fold change” value did it give?
The value was 0.277.

How did the “shrunken log2 fold change” value turn out when RRIRPRPPRLPRPRPRPREKPRP was run?
The value was 0.489.

For RRIRPRPPRLPRPRPRPREYPRP, which “shrunken log2 fold change” value is on record?
Its value is 0.115.

How did the “shrunken log2 fold change” value turn out when RRIRPRPPRLPRPRPRPRFQPRP was run?
Its value is -0.0819.

Which “shrunken log2 fold change” value does the source give for RRIRPRPPRLPRPRPRPRIHPRP here?
Its value is -0.00548.

Which “shrunken log2 fold change” value does the source give for RRIRPRPPRLPRPRPRPRIVPRP here?
Its value is -0.0281.

How did the “shrunken log2 fold change” value turn out when RRIRPRPPRLPRPRPRPRMYPRP was run?
Its value is -0.128.

RRIRPRPPRLPRPRPRPRPHPRP was tested. Which “shrunken log2 fold change” value did it give?
Its value is 0.499.

With RRIRPRPPRLPRPRPRPRPKPRP as the sequence, how does the “shrunken log2 fold change” value read?
The value was 3.22.

How did the “shrunken log2 fold change” value turn out when RRIRPRPPRLPRPRPRPRPNPRP was run?
The value was 0.505.

For RRIRPRPPRLPRPRPRPRQGPRP, which “shrunken log2 fold change” value is on record?
The value was 0.236.

For RRIRPRPPRLPRPRPRPRRFPRP, which “shrunken log2 fold change” value is on record?
The value was 0.0399.

For RRIRPRPPRLPRPRPRPRVTPRP, which “shrunken log2 fold change” value is on record?
Its value is 0.326.

With RRIRPRPPRLPRPRPRPRVVPRP as the sequence, how does the “shrunken log2 fold change” value read?
Its value is 0.341.

With RRIRPRPPRLPRPRPRPRYTPRP as the sequence, how does the “shrunken log2 fold change” value read?
Its value is -0.266.

For RRIRPRPPRLPRPRPRPSADPRP, which “shrunken log2 fold change” value is on record?
Its value is -0.0256.

With RRIRPRPPRLPRPRPRPSAFPRP as the sequence, how does the “shrunken log2 fold change” value read?
The value was 0.191.

RRIRPRPPRLPRPRPRPSAHPRP was tested. Which “shrunken log2 fold change” value did it give?
The value was -0.167.
